In paper PMC7954794, “Protein context shapes the specificity of SH3 domain-mediated interactions in vivo” (Nature Communications, 2021):

Experiments:
[1] = tested on: 575 putative partners (preys) of 22 WT SH3-containing proteins; assay: DHFR-PCA on solid medium, WT and SH3-deleted baits (Fig. 1B); type: cell-based, Saccharomyces cerevisiae; parameters: key to Score: 0: SH3-independent; 1: SH3-dependent PPIs; 2: SH3-inhibited PPIs; conditions: for medrep (log2 median colony size normalized to plate background, PCA score): label = prey; for Ratio (SH3-deleted/WT medrep): only significant differences shown, PPIs completely lost have a ratio of 0.1, gained PPIs 2.5
From the text: To assess the requirement of SH3 domains for PPIs in vivo, we first measured binary interactions between 22 WT SH3-containing proteins (Supplementary Fig. 1A) as baits and 575 putative partners from their interconnected signaling networks using the dihydrofolate reductase protein–fragment complementation assay (DHFR-PCA) in the budding yeast Saccharomyces cerevisiae. About 33% (202/607) of the PPIs detected were described before, mostly by direct methods (Supplementary Fig. 1B, C)[11]. We repeated the experiments with baits in which the SH3s were individually replaced with a flexible linker by genome editing (SH3 domain deletion/stuffing, Fig. 1A). The stuffer DNA sequence ([…]) codes for a small flexible poly-Gly with Ser peptide ([…]) that is inspired by previous experiments[12],[13]. About a third of the SH3-containing protein interactome is qualitatively or quantitatively SH3-dependent (171 PPIs out of 607, Fig. 1B and Supplementary Fig. 1B, C). We validated the vast majority of the quantitative changes in low-throughput experiments and excluded that this is simply due to changes in protein abundance in most cases (Supplementary Fig. 1D–G). SH3-binding motifs[14] are more frequent in the SH3-dependent PPI partners when compared to sequences from random proteins, SH3-independent PPI partners or PPI partners that are stronger or gained following SH3 deletions (p values = 1.5 × 10^−17, 0.0038 and 2.1 × 10^−08, respectively; Mann–Whitney test, one-tailed, Fig. 1C). The changes we measure are therefore enriched for PPIs that depend on the direct interactions of the domains with the PPI partners.
The complete list of strains, primers, and gRNAs used in this study can be found in Supplementary Tables 1–3. All constructed yeast strains were validated by polymerase chain reaction (PCR) and confirmed by Sanger sequencing of the locus of interest. Bait strains for the DHFR-PCA experiments were constructed as follows. The genes of interest were fused at their genomic 3′ end by replacing the stop codon with a linker ([…]), the DHFR F[1,2] followed by a smaller linker (GGGGS), a 1× FLAG tag ([…]) and the NATMX4 resistance cassette via homologous recombination (all amplified from pAG25-DHFR[1,2]-linker-FLAG). The set of 615 prey strains (DHFR F[3] fusions in the BY4742 background) were retrieved from the Yeast Protein Interactome Collection[43] with the exception of 73 that were reconstructed (Supplementary Tables 1 and 2). Knockout strains were taken from the yeast knockout collection except for ABP1, BEM1, BZZ1, and SLA1, which were reconstructed by replacing the ORFs with the NATMX4 resistance cassette by homologous recombination in the BY4741 background.
Yeast SH3 domain genomic sequences were replaced by CRISPR–Cas9 genome editing. Each SH3 domain (as defined by the SMART database V8.0 except for Ysc84 SH3 (as defined by PROSITE), see Source Data for all SH3 sequences and Supplementary Table 1 for primers used) was specifically targeted by one gRNA[46]. Yeast competent cells were co-transformed with a pCAS plasmid (Addgene plasmid 60847[47]) expressing both the gRNA of interest and Streptococcus pyogenes Cas9[46] and a donor DNA sequence (stuffer) with 60 bp homology arms surrounding the SH3 DNA sequence. The Stuffer DNA was either PCR amplified or digested from a plasmid. The stuffer DNA sequence ([…]) codes for a small flexible linker ([…]) inspired by protein linkers used in structural biology[12],[13]. This type of linker is frequently used for fusing proteins without affecting the structure of the linked proteins.
The overall DHFR-PCA pipeline is based on Tarassov et al.[43] and the procedures have also been published as a visualized protocol. The screens were performed with robotically manipulated pin tools (BM5-SC1, S&P Robotics Inc.). First, the preys were cherry-picked from 96-well plates to omnitrays in a 384 format on YPD + HPH solid media. […]

ABP1 = assay: DHFR-PCA on solid medium, bait ABP1 (Fig. 1B); type: cell-based, Saccharomyces cerevisiae; conditions: bait ABP1, label = prey; for medrep (log2 median colony size normalized to plate background, PCA score): 2-4 replicates
From the text: Supplement 41467_2021_21873_MOESM8_ESM.xlsx, sheet "Fig1B" | column: medsize; medrep; Ratio; Score

[2] = bait SLA1-2, DHFR-PCA, Replicates 4 (2 for YCR009C, YDR388W)
[3] = bait SLA1-3, DHFR-PCA, Replicates 4 (2 for YCR009C, YDR388W, YIL033C)

B1: YNL106C (protein, UniProt P50942 1-1183, looked up)
Polyphosphatidylinositol …: MKILLSKQQTRKIAIVSETHGLVFRPINSKNSRRSTCAVELVPKAELNGNGFRRLSNHEIYGFIGLIEIEGLMFIATITGKSKVAQPIPNKTVNKIYAVDFFCLNNSKWDFMDIDSSGYPIVTNDGDFAISSPPSISTHSSRSSLRSSSSRSLNAQEQAPKHPCHELRKLLSNGSFYYSTDFDLTCTLQKRGFTEHSLSFDDFDREFMWNSFLMDEIITYRDRLDVTAKELLDQRGFLTTVIRGFAETIFSYINRLKVGLTIISRQSWKRAGTRFNARGIDDDGHVANFVETEMIMYSSQYCYAFTQIRGSLPIFWEQDTSLISPKIQITRSVEATQPTFDEHFIRLFKKYGPVHIINLLSTKSSEIQLSRRYKEQLKNSEKMKIGRDVFLTSFDFHRETSQDGFAAASRIIPKIRNTILDAGYFSYDVKEGRLISEQDGVFRTNCLDCLDRTNLIQQTISLAVFKLFLEDFRLVKPSSFIDDNEFVQKVNALWADNGDQISQIYTGTNALKSSYSRKGKMSFSGALSDATKSVSRMYINNFVDKGKQQNIDTLLGKLPHQQVVELYDPICEYVNERLLESEEKFTTHSNINLFVGTFNVNGNSRRADLSKWLFPIGDKFKPDVVVLGLQEVIELTAGSILNADYTKSSFWETMVTDCLNQYEEKYLLLRVEQMSSLLILFFARSDRAYNIKEVGGSTKKTGFGGITGNKGAVAIRFDYGATSFCFVNTHLSAGASNIDERRNDYNNIYRNITFPRSKTIPHHDSLFWLGDLNYRITLTNDEVRRELRAQKDGYIDRLLQYDQLTQEINEGVVFQGFKEPTLQFRPTYKYDYGTDNYDTSEKARTPSWTDRIIYKGENLHPLAYSDAPLKISDHKPVYAAYRANVKFVDEKEKLNLVEKLYAEYKNTHPEALTTGPDELSHARMEKQKESIPLDATVQSAGIKLIDLDDTSSCVSPLLSGPSPQPSVVGPGGLSNVSPDKSKLNVLPPPPPTSRHNKEPSSKLLSPTKEISIVSVSPRKGESNLPALERHSTPKPLPPVPALSLSKPVSLQKSSSELQHAKETIDNGKIVPRPCPPIRRKSSTAPDEISTSTKNSGVSTTEDPEPAKASTKPEKPPVVKKPHYLSVAANKLNTSQEHSIKVSPSNSKSEEELPCKKKSKPKVPAKNPELEKLSVHPLKPCDPN
medrep (log2 median colony size normalized to plate background, PCA score) [1, 2]: 1.813 | Score ([1]; bait SLA1-2, label = prey): 1 | Ratio (SH3-deleted/WT medrep) ([1]; bait SLA1-2, label = prey): 0.1 | medrep (log2 median colony size normalized to plate background, PCA score) [1, 3]: 1.813 | Score ([1]; bait SLA1-3, label = prey): 1 | Ratio (SH3-deleted/WT medrep) ([1]; bait SLA1-3, label = prey): 0.1 | medrep (log2 median colony size normalized to plate background, PCA score) (ABP1): 3.9733

B2: YNL229C (protein, UniProt P23202 2-354, looked up)
Transcriptional regulator URE2: MNNNGNQVSNLSNALRQVNIGNRNSNTTTDQSNINFEFSTGVNNNNNNNSSSNNNNVQNNNSGRNGSQNNDNENNIKNTLEQHRQQQQAFSDMSHVEYSRITKFFQEQPLEGYTLFSHRSAPNGFKVAIVLSELGFHYNTIFLDFNLGEHRAPEFVSVNPNARVPALIDHGMDNLSIWESGAILLHLVNKYYKETGNPLLWSDDLADQSQINAWLFFQTSGHAPMIGQALHFRYFHSQKIASAVERYTDEVRRVYGVVEMALAERREALVMELDTENAAAYSAGTTPMSQSRFFDYPVWLVGDKLTIADLAFVPWNNVVDRIGINIKIEFPEVYKWTKHMMRRPAVIKALRGE
medrep (log2 median colony size normalized to plate background, PCA score) [1, 2]: 1.546 | Score ([1]; bait SLA1-2, label = prey): 1 | Ratio (SH3-deleted/WT medrep) ([1]; bait SLA1-2, label = prey): 0.1 | medrep (log2 median colony size normalized to plate background, PCA score) [1, 3]: 1.546 | Score ([1]; bait SLA1-3, label = prey): 0 | medrep (log2 median colony size normalized to plate background, PCA score) (ABP1): 1.889

B3: YNL307C (protein, UniProt P21965 2-375, looked up)
Protein kinase MCK1: STEEQNGVPLQRGSEFIADDVTSNKSNNTRRMLVKEYRKIGRGAFGTVVQAYLTQDKKNWLGPFAIKKVPAHTEYKSRELQILRIADHPNIVKLQYFFTHLSPQDNKVYQHLAMECLPETLQIEINRYVTNKLEMPLKHIRLYTYQIARGMLYLHGLGVCHRDIKPSNVLVDPETGVLKICDFGSAKKLEHNQPSISYICSRFYRAPELIIGCTQYTTQIDIWGLGCVMGEMLIGKAIFQGQEPLLQLREIAKLLGPPDKRFIFFSNPAYDGPLFSKPLFSGSSQQRFEKYFGHSGPDGIDLLMKILVYEPQQRLSPRRILAHQFFNELRNDDTFLPRGFTEPIKLPNLFDFNDFELQILGEFADKIKPTKVAE
medrep (log2 median colony size normalized to plate background, PCA score) [1, 2]: 1.966 | Score ([1]; bait SLA1-2, label = prey): 1 | Ratio (SH3-deleted/WT medrep) ([1]; bait SLA1-2, label = prey): 0.1 | medrep (log2 median colony size normalized to plate background, PCA score) [1, 3]: 1.966 | Score ([1]; bait SLA1-3, label = prey): 0 | medrep (log2 median colony size normalized to plate background, PCA score) (ABP1): 1.521

B4: YCR009C (protein, UniProt P25343 1-265, looked up)
Reduced viability upon …: MSWEGFKKAINRAGHSVIIKNVDKTIDKEYDMEERRYKVLQRAGEALQKEAKGFLDSLRAVTASQTTIAEVISNLYDDSKYVAGGGYNVGNYYLQCVQDFDSETVKQLDGPLRETVLDPITKFSTYFKEIEEAIKKRDHKKQDFDAAKAKVRRLVDKPAKDASKLPRAEKELSLAKDIFENLNNQLKTELPQLVSLRVPYFDPSFEALIKIQLRFCTDGYTRLAQIQQYLDQQSRDDYANGLLDTKIEELLGQMTSLDICALGIK
medrep (log2 median colony size normalized to plate background, PCA score) [1, 2]: 2.15 | Score ([1]; bait SLA1-2, label = prey): 1 | Ratio (SH3-deleted/WT medrep) ([1]; bait SLA1-2, label = prey): 0.1 | medrep (log2 median colony size normalized to plate background, PCA score) [1, 3]: 2.15 | Score ([1]; bait SLA1-3, label = prey): 0 | medrep (log2 median colony size normalized to plate background, PCA score) (ABP1): 4.682

B5: YFR004W (protein, UniProt P43588 1-306, looked up)
Ubiquitin carboxyl-terminal …: MERLQRLMMNSKVGSADTGRDDTKETVYISSIALLKMLKHGRAGVPMEVMGLMLGEFVDDYTVNVVDVFAMPQSGTGVSVEAVDDVFQAKMMDMLKQTGRDQMVVGWYHSHPGFGCWLSSVDVNTQKSFEQLNSRAVAVVVDPIQSVKGKVVIDAFRLIDTGALINNLEPRQTTSNTGLLNKANIQALIHGLNRHYYSLNIDYHKTAKETKMLMNLHKEQWQSGLKMYDYEEKEESNLAATKSMVKIAEQYSKRIEEEKELTEEELKTRYVGRQDPKKHLSETADETLENNIVSVLTAGVNSVAIK
medrep (log2 median colony size normalized to plate background, PCA score) [1, 2]: 2.485 | Score ([1]; bait SLA1-2, label = prey): 1 | Ratio (SH3-deleted/WT medrep) ([1]; bait SLA1-2, label = prey): 0.1 | medrep (log2 median colony size normalized to plate background, PCA score) [1, 3]: 2.485 | Score ([1]; bait SLA1-3, label = prey): 0 | medrep (log2 median colony size normalized to plate background, PCA score) (ABP1): 3.9898 | Ratio (SH3-deleted/WT medrep) (ABP1; only significant differences showed, PPIs completely lost have a ratio of 0.1 and the gained PPIs 2.5): 1.738
